{"source": "patent US20240052052A1", "key": {"human CD24 (human) [1]": {"molecular_target": "human CD24 (human) (UniProt P25063)", "sequence (P25063 27-59)": "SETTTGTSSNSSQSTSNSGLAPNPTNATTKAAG", "test": "FACS, OCI-LY1 cells"}, "human CD24 (human) [2]": {"molecular_target": "human CD24 (human) (UniProt P25063)", "test": "FACS, OCI-LY7 cells"}, "human CD24 (human) [3]": {"molecular_target": "human CD24 (human) (UniProt P25063)", "test": "FACS, H1975 cells"}, "human CD24 (human) [4]": {"molecular_target": "human CD24 (human) (UniProt P25063)", "test": "FACS, Nalm1 cells"}, "human CD24 (human) [5]": {"molecular_target": "human CD24 (human) (UniProt P25063)", "test": "FACS, HT-29 cells"}, "human CD24 (human) [6]": {"molecular_target": "human CD24 (human) (UniProt P25063)", "test": "FACS, 293F-hCD24 cells"}, "human CD24 (human) [7]": {"molecular_target": "human CD24 (human) (UniProt P25063)", "test": "FACS, 5637 cells"}, "human CD24 (human) [8]": {"molecular_target": "human CD24 (human) (UniProt P25063)", "test": "FACS, MDA-MB-468 cells"}, "human CD24 (human) [9]": {"molecular_target": "human CD24 (human) (UniProt P25063)", "test": "FACS, CHOK1-hCD24 cells"}, "human CD24 (human) [10]": {"molecular_target": "human CD24 (human) (UniProt P25063)", "test": "FACS, MCF7 cells"}, "human CD24 (human) [11]": {"molecular_target": "human CD24 (human) (UniProt P25063)", "test": "FACS, A549 cells"}, "human CD24 (human) [12]": {"molecular_target": "human CD24 (human) (UniProt P25063)", "test": "FACS, SU-DHL6 cells"}}}
{"substance": "mIgG ctrl (antibody)", "values": [{"measurement": "FACS MFI", "setting": "human CD24 (human) [1]", "result": 197}, {"measurement": "FACS MFI", "setting": "human CD24 (human) [2]", "result": 186}, {"measurement": "FACS MFI", "setting": "human CD24 (human) [3]", "result": 203}, {"measurement": "Max MFI", "setting": "human CD24 (human) [3]", "result": 203}, {"measurement": "FACS MFI", "setting": "human CD24 (human) [4]", "result": 175}, {"measurement": "Max MFI", "setting": "human CD24 (human) [4]", "result": 175}, {"measurement": "FACS MFI", "setting": "human CD24 (human) [5]", "result": 194}, {"measurement": "Max MFI", "setting": "human CD24 (human) [5]", "result": 194}, {"measurement": "FACS MFI", "setting": "human CD24 (human) [6]", "result": 185}, {"measurement": "Max MFI", "setting": "human CD24 (human) [6]", "result": 185}, {"measurement": "FACS MFI", "setting": "human CD24 (human) [7]", "result": 185}, {"measurement": "Max MFI", "setting": "human CD24 (human) [7]", "result": 185}, {"measurement": "FACS MFI", "setting": "human CD24 (human) [8]", "result": 190}, {"measurement": "Max MFI", "setting": "human CD24 (human) [8]", "result": 190}, {"measurement": "FACS MFI", "setting": "human CD24 (human) [9]", "result": 177}, {"measurement": "Max MFI", "setting": "human CD24 (human) [9]", "result": 189}, {"measurement": "FACS MFI", "setting": "human CD24 (human) [10]", "result": 187}, {"measurement": "Max MFI", "setting": "human CD24 (human) [10]", "result": 187}, {"measurement": "FACS MFI", "setting": "human CD24 (human) [11]", "result": 167}, {"measurement": "Max MFI", "setting": "human CD24 (human) [11]", "result": 167}, {"measurement": "FACS MFI", "setting": "human CD24 (human) [12]", "result": 188}]}
